Assay results taken from FireProtDB (doi:10.1111/j.1432-1033.1995.tb20520.x).
Several values for one entry are separate records, joined by “and”; a condition that tells them apart may be missing. Equal entries are not always repeated.

Conditions: Paenibacillus macerans, pH 6, Sodium cacodylate 2 mM, reversible: yes, whole UniProt chain shown; for unfolding free energy: 25 °C, GdnHCl; for heat capacity change of unfolding / unfolding enthalpy (van 't Hoff) / Tm / unfolding enthalpy (calorimetric): Thermal

B1: Beta-glucanase wild type, P23904 (protein)
chain: MKKKSCFTLVTTFAFSLIFSVSALAGSVFWEPLSYFNRSTWEKADGYSNGGVFNCTWRANNVNFTNDGKLKLGLTSSAYNKFDCAEYRSTNIYGYGLYEVSMKPAKNTGIVSSFFTYTGPAHGTQWDEIDIEFLGKDTTKVQFNYYTNGVGGHEKVISLGFDASKGFHTYAFDWQPGYIKWYVDGVLKHTATANIPSTPGKIMMNLWNGTGVDDWLGSYNGANPLYAEYDWVKYTSN
unfolding free energy (CD): 10.3 kcal/mol and 9.01 kcal/mol and 8.6 kcal/mol | unfolding free energy (DSC, CaCl2 1 mM): 10.4 kcal/mol and 10.5 kcal/mol | unfolding free energy (DSC): 10.8 kcal/mol and 9.89 kcal/mol and 8.41 kcal/mol | heat capacity change of unfolding (CD, CaCl2 1 mM): 2.2 kcal/mol/K and 1.79 kcal/mol/K | unfolding enthalpy (van 't Hoff) (CD, CaCl2 1 mM): 162 kcal/mol and 169 kcal/mol and 183 kcal/mol | Tm (CD): 51.2 °C and 47.7 °C and 49.7 °C | heat capacity change of unfolding (CD): 2.01 kcal/mol/K and 1.6 kcal/mol/K and 1.7 kcal/mol/K | unfolding enthalpy (van 't Hoff) (CD): 154 kcal/mol and 145 kcal/mol and 135 kcal/mol | heat capacity change of unfolding (DSC, CaCl2 1 mM): 2.2 kcal/mol/K and 1.79 kcal/mol/K and 2.44 kcal/mol/K | unfolding enthalpy (calorimetric) (DSC, CaCl2 1 mM): 78.2 kcal/mol and 156 kcal/mol and 87 kcal/mol | Tm (DSC): 51.2 °C and 49.3 °C and 46.6 °C | heat capacity change of unfolding (DSC): 2.01 kcal/mol/K and 1.6 kcal/mol/K and 1.7 kcal/mol/K | unfolding enthalpy (calorimetric) (DSC): 161 kcal/mol and 146 kcal/mol and 143 kcal/mol
